T1: human CD112R on GS-J2C/CD112R effector cells (human, UniProt Q6DKI7 1-326)
T1 sequence (looked up): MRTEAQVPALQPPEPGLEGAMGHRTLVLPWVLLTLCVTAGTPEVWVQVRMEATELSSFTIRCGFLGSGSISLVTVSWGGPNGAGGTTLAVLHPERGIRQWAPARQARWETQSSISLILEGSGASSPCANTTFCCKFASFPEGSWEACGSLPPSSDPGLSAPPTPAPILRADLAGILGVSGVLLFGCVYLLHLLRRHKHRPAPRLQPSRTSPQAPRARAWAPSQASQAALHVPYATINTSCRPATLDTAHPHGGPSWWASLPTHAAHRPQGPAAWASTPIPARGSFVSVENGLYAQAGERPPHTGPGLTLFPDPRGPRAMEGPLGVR

T2: human CD112R antigen protein huCD112R-His (Acro Biosysterm, PVG-H52H4) (human, UniProt Q6DKI7 41-171)
T2 construct: purchased; also called human antigen protein; not shown: His tag
T2 sequence (looked up): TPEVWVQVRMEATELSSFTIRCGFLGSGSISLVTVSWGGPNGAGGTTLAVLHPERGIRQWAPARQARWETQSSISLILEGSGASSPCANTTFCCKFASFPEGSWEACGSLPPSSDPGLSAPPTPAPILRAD

T3: human CD112R on antigen-specific CD8+ T cells (human, UniProt Q6DKI7 1-326)
T3 sequence (looked up): T1 sequence (looked up)

T4: monkey antigen protein (monkey CD112R, Uniprot ID: A0A2K5WVV8) (monkey, UniProt A0A2K5WVV8 41-171)
T4 sequence: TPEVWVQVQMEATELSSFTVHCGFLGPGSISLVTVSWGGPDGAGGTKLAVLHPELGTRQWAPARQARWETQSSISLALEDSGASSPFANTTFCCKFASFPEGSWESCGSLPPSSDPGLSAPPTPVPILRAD

B1: C12 (antibody, human IgG1, kappa, V domains shown)
VH: EVQLVASGGGLVKPGGSLKLSCAASGFTFSDYYMYWVRQTPEKRLEWVATISDGGGYTYYPDSVKGRFTISRDNDRNSLYLQMSSLKSEDTAMYYCGREDLWGQGTSVTVSS
VL: DIQMTQSPSSLSASLGERVSLTCRASQDIGSSLNWLQQEPDGTVKRLIYATSRLDSGVPKRFSGSRSGSDYSLTISSLESEDFVDYYCLQYASFPYTFGGGTKLEIKR
B2: C1 (antibody, human IgG1, kappa, V domains shown)
VH: QVHLQQSGPELVKPGASLKISCKASGYTFTDYYLNWVKQRPGQGLEWIGWIFPGSESTFYNEKFKGKATLTVDKSSSTAYMLLNSLTSEDSAVYFCTRDGGLRGPFDYWGQGTTLTVSS
VL: DIQLTQSPSSLSASLGGKVTITCKASQDINKYIAWCQHKPGKGPRLLIHYTSTLHPGIPSRFSGSGSGRDYSFSISNLEPEDSATYYCLQYDYLLTFGGGTKLEIKR
B3: anti-CD112R antibody CHA.7.518 (antibody, V domains shown)
VH: QVQLVQSGAEVKKPGASVKVSCKASGYTFTDYNINWVRQAPGQGLEWMGYIYPYIGGSGYAQKFQGRVTMTRDTSTSTVYMELSSLRSEDTAVYYCAREDKTARNAMDYWGQGTLVTVSS
VL: DIQMTQSPSSLSASVGDRVTITCRVSENIYSNLAWYQQKPGKAPKLLIYEATNLAEGVPSRFSGSGSGTDFTLTISSLQPEDFATYYCQHFWGTPYTFGQGTKLEIKR
notes: synthesised according to WO/2016/134333; also called Tab-1; Tab 1
B4: C13 (antibody, human IgG1, kappa, V domains shown)
VH: EVQLQQSGPELVKPGASVKISCKASGYTFTDYFMNWVKQSHGKSLEWIGDINPNNGSPNYNQKFKGRATLTVDKSSSTAYMELRSLTSEDSAVYYCASGYFDVWGTGTTVTVSS
VL: DIVMTQSPSSLSVSAGEKVTMSCKSSQSLLNSGTQKNYLAWYQQKPGQPPKLLIYGASTRESGVPDRFTGSGSGTDFTLTISSVQAEDLAVYYCQNDHSYPWTFGGGTKLEIKR
B5: C11 (antibody, human IgG1, kappa, V domains shown)
VH: B4 VH with K38R, N52H, R67K, D73G, S98T
VL: B4 VL with T34N
B6: C4 (antibody, human IgG1, kappa, V domains shown)
VH: B4 VH with N52I, G56D, R67K, S77N
VL: B4 VL with T34N, Y38F, A57T

Numbering of substitutions follows the chain as printed.

The target of one assay is T1, human CD112R on GS-J2C/CD112R effector …. The experiment in a line: cell-based or functional assay.
For the molecule B1, the “EC50 (Blocking effects of the antibodies, reporter gene method)” value is 0.024 µg/mL.
As for B2, the “EC50 (Blocking effects of the antibodies, reporter gene method)” value is 0.045 µg/mL.
Turning to B3, the “EC50 (Blocking effects of the antibodies, reporter gene method)” value was found to be 0.065 µg/mL.
Still for that read-out and setting: the same measure for B4: 0.019 µg/mL; for B5: 0.021 µg/mL.
Still for that read-out and setting: the same measure for B6: 0.024 µg/mL.

A further assay concerns the target T2, human CD112R antigen protein …. The experiment in a line: SPR (Biacore X100), antibody captured on Protein A chip, huCD112R-His as analyte, 1:1 Langmuir. A general note: In SPR one partner is held on a chip, and binding of the other changes the refractive index at the surface.
The Kd is the concentration at which binding is half-saturated. As for B1, binding was characterised by a dissociation constant (Kd) of 2.9 nM.
For the molecule B2, the dissociation constant Kd is 0.905 nM.
Turning to B3, the Kd came out at 0.346 nM.
On the same count and under the same terms, in the case of B4 it was 0.0218 nM; in that of B5, 0.0622 nM; in that of B6, 0.0141 nM.

In a further assay the target is T3, human CD112R on antigen-specific CD8+ T …. The experiment in a line: cell-based or functional assay.
For the molecule B1, the “IFN-γ(pg/ml) at 0.5µg/ml antibody” value stood at 608 pg/mL, the “IFN-γ(pg/ml) at 5µg/ml antibody” value was determined as 678 pg/mL and the “IFN-γ(pg/ml) at 50µg/ml antibody” value was determined as 824 pg/mL.
Turning to B2, the “IFN-γ(pg/ml) at 0.5µg/ml antibody” value came to 543 pg/mL, the “IFN-γ(pg/ml) at 5µg/ml antibody” value worked out at 641 pg/mL and the “IFN-γ(pg/ml) at 50µg/ml antibody” value turned out to be 755 pg/mL.
In the case of B3, the “IFN-γ(pg/ml) at 0.5µg/ml antibody” value stood at 696 pg/mL, the “IFN-γ(pg/ml) at 5µg/ml antibody” value amounted to 718 pg/mL and the “IFN-γ(pg/ml) at 50µg/ml antibody” value turned out to be 763 pg/mL.
As to B4, the “IFN-γ(pg/ml) at 0.5µg/ml antibody” value amounted to 624 pg/mL, the “IFN-γ(pg/ml) at 5µg/ml antibody” value was 658 pg/mL and the “IFN-γ(pg/ml) at 50µg/ml antibody” value is 767 pg/mL.
Taken in the same sequence, the figures for B5 were 676 pg/mL, 747 pg/mL and 617 pg/mL.
In the case of B6, the “IFN-γ(pg/ml) at 0.5µg/ml antibody” value is 663 pg/mL, the “IFN-γ(pg/ml) at 5µg/ml antibody” value was 740 pg/mL and the “IFN-γ(pg/ml) at 50µg/ml antibody” value was 875 pg/mL.

The next assay has as its target T2, human CD112R antigen protein …. The assay can be described thus: ELISA, huCD112R-His coated on plate. On the technique in general: ELISA stands for enzyme-linked immunosorbent assay.
By EC50 is commonly meant the concentration at which the effect is half-maximal. In the case of B1, the EC50 amounted to 0.155 nM.
Same read-out and setting: the same measure for B2: 0.075 nM.
Molecule B3 displayed an EC50 of 0.034 nM.
Consider B4, for which the response was half-maximal at 0.065 nM (EC50).
B5 showed an EC50 of 0.056 nM.
The molecule B6 displayed an EC50 of 0.032 nM.

The next assay deals with T4, monkey antigen protein (monkey CD112R, …). The assay can be described thus: ELISA, monkey antigen protein (as Example 6.1).
Molecule B1 had an EC50 of 0.768 nM.
Regarding B2, the EC50 is 0.116 nM.
As to B4, the EC50 was found to be 0.059 nM.
In the case of B5, the EC50 was 0.079 nM.
Molecule B6 showed an EC50 of 0.059 nM.

These data come from patent EP4644419A1 (Hangzhou Zhongmeihuadong Pharmaceutical Co., Ltd., dated 2025).
